For this series the following is noted: Pseudomonas aeruginosa (strain ATCC 15692 / DSM 22644 / CIP 104116 / JCM 14847 / LMG 12228 / 1C / PRS 101 / PAO1), 10 °C, GdnHCl, Fluorescence, reversible: yes (100%), whole UniProt chain shown.
Where [1] appears, read: pH 4, phosphate/acetate 25 mM/25 mM/.
Setting [2] is: pH 4.7, phosphate/acetate 25 mM/25 mM/.

This is an account of results in FireProtDB (doi:10.1006/jmbi.1999.2852).

B1: Cytochrome c-551 wild type, P00099 (protein)
chain: MKPYALLSLLATGTLLAQGAWAEDPEVLFKNKGCVACHAIDTKMVGPAYKDVAAKFAGQAGAEAELAQRIKNGSQGVWGPIPMPPNAVSDDEAQTLAKWVLSQK
For B1, the denaturant m value reads like this: (pH 3, citrate 15 mM) 3.3 kcal/mol/M; under setting [1], 2.8 kcal/mol/M; under setting [2], 3.1 kcal/mol/M; (pH 7, Sodium phosphate 50 mM) 3.3 kcal/mol/M. For the same protein, the “denaturant midpoint (higher = more stable)” value by setting is: (pH 3, citrate 15 mM) 1 M; under setting [1], 2.1 M; under setting [2], 2.1 M; (pH 7, Sodium phosphate 50 mM) 1.8 M. Moreover, the unfolding free energy reads like this: (pH 3, citrate 15 mM) 3.3 kcal/mol; under setting [1], 5.9 kcal/mol; under setting [2], 6.6 kcal/mol; (pH 7, Sodium phosphate 50 mM) 6 kcal/mol.
